# Publication PMC11166458, “Caskin2 is a novel talin- and Abi1-binding protein that promotes cell motility” (Journal of Cell Science, 2024)
# Tested on: Caskin2
# Test: GFP-Trap pulldown of Caskin2 by GFP-tagged Abi1 constructs in COS-7 cells
# Assay type: binding
# Conditions: western blot
# Experimental: For transient expression, COS-7 cells were grown to 70% confluence in 10 cm culture dishes and transfected with plasmid DNAs using the DEAE–dextran method ([Schaapveld et al., 1998]). Briefly, 4.5 µg of plasmid DNA was mixed with 500 µg/ml DEAE–dextran in 2.5 ml PBS. Cells were washed two times with PBS and then incubated for 30 min at 37°C with the DEAE–dextran solution. Subsequently, 80 µM chloroquine was added to the cells in 10 ml DMEM with FCS and cells were incubated at 37°C for 3 h. After aspiration of the medium, the cells were treated with 3 ml of DMEM with FCS containing 10% DMSO for 2.5 min. The DMSO solution was then removed and replaced with fresh medium, after which the cells were further incubated for 48–72 h before analysis.
# For analysis of protein in whole-cell lysates, cells were washed three times with cold PBS, lysed in Nonidet P-40 lysis buffer [20 mM Tris-HCl pH 7.5, 100 mM NaCl, 1% NP-40), supplemented with Na3VO4 (1.5 mM), NaF (15 mM), protease inhibitor cocktail (1:1000; Sigma-Aldrich) and phosphatase inhibitor cocktail 3 (1:100; Sigma-Aldrich)] and cleared by centrifugation at 14,000 g for 1 h at 4°C. […]
# GFP-Trap pulldown experiments were performed as follows. Cleared lysates containing equal amounts of proteins, as determined by a Pierce™ BCA Protein Assay, were incubated with GFP-Trap agarose beads (Chromotek) in a rotation wheel for 6 h at 4°C. […]
molecule,measurement,value
"GFP–Abi1-DAWN: GFP-tagged Abi1 mutant harboring the mutations D453A and W455N (protein, left off: GFP, end not stated, kept, GFP-tagged Abi1 mutant harboring the mutations D453A and W455N) MAELQMLLEEEIPSGKRALIESYQNLTRVADYCENNYIQATDKRKALEETKAYTTQSLASVAYQINALANNVLQLLDIQASQLRRMESSINHISQTVDIHKEKVARREIGILTTNKNTSRTHKIIAPANMERPVRYIRKPIDYTVLDDVGHGVKWLKAKHGNNQPARTGTLSRTNPPTQKPPSPPMSGRGTLGRNTPYKTLEPVKPPTVPNDYMTSPARLGSQHSPGRTASLNQRPRTHSGSSGGSGSRENSGSSSIGIPIAVPTPSPPTIGPAPGSAPGSQYGTMTRQISRHNSTTSSTSSGGYRRTPSVTAQFSAQPHVNGGPLYSQNSISIAPPPPPMPQLTPQIPLTGFVARVQENIADSPTPPPPPPPDDIPMFDDSPPPPPPPPVDYEDEEAAVVQYNDPYADGDPAWAPKNYIEKVVAIYDYTKDKDDELSFMEGAIIYVIKKNDAGNYEGVCNRVTGLFPGNYVESIMHYTD",Caskin2 precipitation by Abi1 construct,unable to precipitate Caskin2
